Results published in patent US20220144956A1 (Xencor, published 2022).
Residue numbers refer to the chain shown, from its start. In names and notes the source's numbering stands. Values belong to the binder of their own block, whether it stands above or below them.

Key:
[1] = biological target: T1, human CD5 on human PBMCs / T cells (human, UniProt P06127 25-495); experiment: cell binding on unstimulated human PBMCs (FIG. 67)
T1 construct: whole, on cells
T1 sequence (looked up): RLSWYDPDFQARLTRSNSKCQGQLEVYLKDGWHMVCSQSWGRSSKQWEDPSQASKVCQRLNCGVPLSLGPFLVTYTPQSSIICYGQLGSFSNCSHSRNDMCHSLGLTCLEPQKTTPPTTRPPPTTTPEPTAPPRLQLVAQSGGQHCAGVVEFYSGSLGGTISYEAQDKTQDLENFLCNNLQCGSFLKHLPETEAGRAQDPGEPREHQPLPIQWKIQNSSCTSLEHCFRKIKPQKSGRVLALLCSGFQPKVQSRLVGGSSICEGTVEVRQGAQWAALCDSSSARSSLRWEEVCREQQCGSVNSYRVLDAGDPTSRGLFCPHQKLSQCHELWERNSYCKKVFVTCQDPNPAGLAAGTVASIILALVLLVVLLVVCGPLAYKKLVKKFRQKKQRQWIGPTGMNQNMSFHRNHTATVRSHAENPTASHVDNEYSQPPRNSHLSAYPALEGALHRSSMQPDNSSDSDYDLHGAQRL

[2] = biological target: T1, human CD5 on human PBMCs / T cells; experiment: flow cytometry on unstimulated human PBMCs, anti-human Fc Alexa647 secondary
Experimental: Next, cell binding of the bispecific antibodies were investigated. Unstimulated PBMCs were incubated with the indicated dose of bispecific antibodies for 1 hour on ice and washed. Next, the PBMCs were stained with goat anti-human Fc secondary antibody conjugated to Alexa647 (to assess binding of the bispecific antibodies) and antibodies against cell surface antigens (to define T cell populations) for 40 minutes on ice. Finally, the cells were analyzed by flow cytometry.

[3] = biological target: T2, His-tagged human CD5 antigen (human, UniProt P06127 25-372, limits assumed); experiment: worded comparison of affinity (Octet KD values in FIG. 68)
T2 construct: not shown: His tag
T2 sequence (looked up): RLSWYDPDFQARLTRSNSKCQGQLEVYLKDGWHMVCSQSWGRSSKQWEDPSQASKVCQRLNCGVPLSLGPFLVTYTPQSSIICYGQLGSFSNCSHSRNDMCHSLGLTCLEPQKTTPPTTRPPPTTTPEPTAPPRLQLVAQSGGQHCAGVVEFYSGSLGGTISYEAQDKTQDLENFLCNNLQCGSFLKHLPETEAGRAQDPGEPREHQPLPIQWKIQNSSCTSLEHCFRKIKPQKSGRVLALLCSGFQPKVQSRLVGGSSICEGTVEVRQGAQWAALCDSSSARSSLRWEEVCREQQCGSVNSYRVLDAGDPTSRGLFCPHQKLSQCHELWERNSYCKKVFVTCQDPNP
Text: In particular, His-tagged human and cynomolgus CD5 antigen were captured using HIS1K sensors and dipped into multiple concentrations of the bispecific antibodies.

[4] = biological target: T3, human TGFßRII on human PBMCs / T cells (human, UniProt P37173 23-567); experiment: flow cytometry, Alexa647-labeled mAb on anti-CD3 activated human PBMCs
T3 construct: whole, on cells; also called cell-surface TGFßRII; TGFßR2

[5] = biological target: T2, His-tagged human CD5 antigen; experiment: method not stated; the filing prints 'TGFßRII' but the sentence is about restoring the CD5 affinity of Cd5-B VH variants, so the target is taken as CD5
[6] = biological target: T4, His-tagged cynomolgus CD5 antigen (cynomolgus monkey); experiment: as above
T4 construct: also called cyno CD5

T3 sequence (P37173 23-567): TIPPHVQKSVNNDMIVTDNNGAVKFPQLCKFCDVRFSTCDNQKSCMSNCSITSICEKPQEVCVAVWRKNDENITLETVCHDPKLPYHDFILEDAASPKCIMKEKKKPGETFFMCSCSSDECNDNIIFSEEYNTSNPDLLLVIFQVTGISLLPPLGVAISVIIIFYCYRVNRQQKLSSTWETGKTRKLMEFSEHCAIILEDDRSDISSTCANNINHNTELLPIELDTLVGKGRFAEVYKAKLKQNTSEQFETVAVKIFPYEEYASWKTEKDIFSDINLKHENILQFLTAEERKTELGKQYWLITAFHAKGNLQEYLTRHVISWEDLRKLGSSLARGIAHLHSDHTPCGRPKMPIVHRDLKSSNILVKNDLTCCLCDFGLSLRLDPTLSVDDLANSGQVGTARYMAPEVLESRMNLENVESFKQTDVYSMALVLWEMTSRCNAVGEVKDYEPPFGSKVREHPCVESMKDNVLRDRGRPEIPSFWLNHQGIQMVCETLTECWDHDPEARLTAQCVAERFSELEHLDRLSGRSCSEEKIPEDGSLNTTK

binding result [1]: binds
B1: XENP35401 (antibody, human IgG1, kappa, V domains shown)
VH: EVQLVESGGGVVQPGRSLRLSCTFSGFSLSTSGMGVGWIRQAPGKGLEWVAHIWWDDDVYYNPSLKSRLTITKDASTDTVYMELSSLRSEDTAVYYCVRRRATGTGFDYWGQGTLVTVSS
VL: NIVMTQSPSSLSASVGDRVTITCQASQDVGTAVAWYQQKPDQSPKLLIYWTSTRHTGVPDRFTGSGSGTDFTLTISSLQPEDIATYFCHQYNSYNTFGSGTKLEIKR
notes: IgG1 backbone with E233P/L234V/L235A/G236del/S267K ablation variant; also called bivalent anti-CD5 mAb based on clone 5D7; 5D7; copies: 2 + 2

binding result [2]: binds
B2: XENP35399 (bispecific antibody, human IgG1, kappa)
heavy: EVQLVESGGGVVQPGRSLRLSCTFSGFSLSTSGMGVGWIRQAPGKGLEWVAHIWWDDDVYYNPSLKSRLTITKDASTDTVYMELSSLRSEDTAVYYCVRRRATGTGFDYWGQGTLVTVSSASTKGPSVFPLAPSSKSTSGGTAALGCLVKDYFPEPVTVSWNSGALTSGVHTFPAVLQSSGLYSLSSVVTVPSSSLGTQTYICNVNHKPSDTKVDKKVEPKSCDKTHTCPPCPAPPVAGPSVFLFPPKPKDTLMISRTPEVTCVVVDVKHEDPEVKFNWYVDGVEVHNAKTKPREEEYNSTYRVVSVLTVLHQDWLNGKEYKCKVSNKALPAPIEKTISKAKGQPREPQVYTLPPSREEMTKNQVSLTCDVSGFYPSDIAVEWESDGQPENNYKTTPPVLDSDGSFFLYSKLTVDKSRWEQGDVFSCSVMHEALHNHYTQKSLSLSPGK
scFv-Fc: QLQVQESGPGLVKPSETLSLTCTVSGGSISNSYFSWGWIRQPPGKGLEWIGSFYYGEKTYYNPSLKSRATISIDTSKSQFSLKLSSVTAADTAVYYCPRGPTVIRGVIDSWGQGTLVTVSSGKPGSGKPGSGKPGSGKPGSEIVLTQSPATLSLSPGERATLSCRASQSVRSYLAWYQQKPGQAPRLLIYDASNRATGIPARFSGSGSGTDFTLTISSLEPEDFAVYYCQQRSNWPPTFGQGTKVEIKEPKSSDKTHTCPPCPAPPVAGPSVFLFPPKPKDTLMISRTPEVTCVVVDVKHEDPEVKFNWYVDGVEVHNAKTKPREEQYNSTYRVVSVLTVLHQDWLNGKEYKCKVSNKALPAPIEKTISKAKGQPREPQVYTLPPSREQMTKNQVKLTCLVKGFYPSDIAVEWESNGQPENNYKTTPPVLDSDGSFFLYSKLTVDKSRWQQGNVFSCSVMHEALHNHYTQKSLSLSPGK
light: NIVMTQSPSSLSASVGDRVTITCQASQDVGTAVAWYQQKPDQSPKLLIYWTSTRHTGVPDRFTGSGSGTDFTLTISSLQPEDIATYFCHQYNSYNTFGSGTKLEIKRTVAAPSVFIFPPSDEQLKSGTASVVCLLNNFYPREAKVQWKVDNALQSGNSQESVTEQDSKDSTYSLSSTLTLSKADYEKHKVYACEVTHQGLSSPVTKSFNRGEC
notes: also called prototype anti-TGFßRII×anti-CD5 bsAb having CD5-targeting arm based on clone 5D7; αTGFßRII×αCD5

binding result [2]: binds
B3: XENP37388 (bispecific antibody, human IgG1, kappa)
heavy: QVTLKESGAELVRPGASVKLSCKASGYSFTSYWMNWVKQRPGQGLEWIGMIHPSDSETRLNQKFKDKATLTVDKSSSTAYMQLSSPTSEDSAVYYCARWGDHDDAMDFWGQGTMVTVSSASTKGPSVFPLAPSSKSTSGGTAALGCLVKDYFPEPVTVSWNSGALTSGVHTFPAVLQSSGLYSLSSVVTVPSSSLGTQTYICNVNHKPSDTKVDKKVEPKSCDKTHTCPPCPAPPVAGPSVFLFPPKPKDTLMISRTPEVTCVVVDVKHEDPEVKFNWYVDGVEVHNAKTKPREEEYNSTYRVVSVLTVLHQDWLNGKEYKCKVSNKALPAPIEKTISKAKGQPREPQVYTLPPSREEMTKNQVSLTCDVSGFYPSDIAVEWESDGQPENNYKTTPPVLDSDGSFFLYSKLTVDKSRWEQGDVFSCSVMHEALHNHYTQKSLSLSPGK
scFv-Fc: B2 scFv-Fc
light: DIVLTQSPASLSASVGESVTITCRPSENIYGYFAWYQQRQGKSPQLLVYNAKTLAEGVPSRFSGSGSGTHFSLKINSLQPEDFGTYYCQHHYGTPFTFGPGTKVDIKRTVAAPSVFIFPPSDEQLKSGTASVVCLLNNFYPREAKVQWKVDNALQSGNSQESVTEQDSKDSTYSLSSTLTLSKADYEKHKVYACEVTHQGLSSPVTKSFNRGEC
notes: also called anti-TGFßRII×anti-CD5 bsAb based on Cd5-B (by the order of the sentence)

binding result [3]: binds
B4: XENP37385 (bispecific antibody, human IgG1, kappa)
heavy: EVQLKESGAELVRPGGSVKISCKGSGYTFTNFAIHWVKQSHIKTLEWIGLISTSSGDVSYNQKFKDKATMTVDKSSSTAYMELARLTSEDSAIYYCARHYGANNYFDYWGQGTLVTVSSASTKGPSVFPLAPSSKSTSGGTAALGCLVKDYFPEPVTVSWNSGALTSGVHTFPAVLQSSGLYSLSSVVTVPSSSLGTQTYICNVNHKPSDTKVDKKVEPKSCDKTHTCPPCPAPPVAGPSVFLFPPKPKDTLMISRTPEVTCVVVDVKHEDPEVKFNWYVDGVEVHNAKTKPREEEYNSTYRVVSVLTVLHQDWLNGKEYKCKVSNKALPAPIEKTISKAKGQPREPQVYTLPPSREEMTKNQVSLTCDVSGFYPSDIAVEWESDGQPENNYKTTPPVLDSDGSFFLYSKLTVDKSRWEQGDVFSCSVMHEALHNHYTQKSLSLSPGK
scFv-Fc: B2 scFv-Fc
light: EIVLTQSPTIMSASPGEQVTMTCRTNSSVSSSYLHWYQQKSGASPKLWIYGTSNLASGVPTRFSGSGSGTSYSLTISSVEAGDAATYFCQQYSGYPLTFGGGTKVEIKRTVAAPSVFIFPPSDEQLKSGTASVVCLLNNFYPREAKVQWKVDNALQSGNSQESVTEQDSKDSTYSLSSTLTLSKADYEKHKVYACEVTHQGLSSPVTKSFNRGEC

binding result [4]: binds
B5: XENP33038 (antibody, human IgG1, kappa, V domains shown)
VH: EVQLVESGGGLVKPGGSLRLSCAASGFTFSSFSMNWVRQAPGKGLEWVSSISSSSSYIYYTDSVKGRFTISRDNAKNSLYLQMNSLRAEDTAVYYCARGYWGFDYWGQGTLVTVSS
VL: DIQMTQSPSSLSASVGDRVTITCRASQGIRNDLGWYQQKPGKAPKRLIYAASSLQSGVPSRFSGSASGTEFTLTISSLQPEDFATYYCLQHNSNPLTFGGGTKVEIKR
modifications: Antibody labeled with Alexa647 in the assay; attachment sites not stated.
notes: labeled with Alexa647; also called illustrative anti-TGFßRII mAb XENP33038; copies: 2 + 2

Kd [5]: 2 nM | Kd [6]: 0.3 nM
B6: Cd5-B H2L1 (further humanized variant of Cd5-B) (antibody, V domains shown)
VH: QVQLVQSGAEVKKPGASVKVSCKASGYSFTSYWMNWVRQAPGQGLEWMGMIHPSDSETRYNQKFQGRVTMTVDKSTSTAYMELSSLRSEDTAVYYCARWGDHDDAMDFWGQGTMVTVSS
VL: DIVLTQSPSSLSASVGDRVTITCRPSENIYGYFAWYQQKPGKSPKLLVYNAKTLAEGVPSRFSGSGSGTDFTLTISSLQPEDFATYYCQHHYGTPFTFGPGTKVEIK

Kd [5]: 4 nM | Kd [6]: 3 nM
B7: Cd5-B H1.23_L1 (further humanized variant of Cd5-B) (antibody, V domains shown)
VH: EVQLVQSGAEVKKPGESLKISCKASGYSFTSYWMNWVRQMPGKGLEWMGMIYPSDSETRYNQSFQGQVTISVDKSISTAYLQWSSLKASDTAMYYCARWGDHDDAMDFWGQGTMVTVSS
VL: B6 VL

Kd [5]: 4 nM | Kd [6]: 2 nM
B8: Cd5-B H1.36_L1 (further humanized variant of Cd5-B) (antibody, V domains shown)
VH: B7 VH with Y52H, S63K
VL: B6 VL

binding result [4]: binds
B9: XENP28297 (antibody, human IgG1, kappa, V domains shown)
VH: QLQVQESGPGLVKPSETLSLTCTVSGGSISNSYFSWGWIRQPPGKGLEWIGSFYYGEKTYYNPSLKSRATISIDTSKSQFSLKLSSVTAADTAVYYCPRGPTVIRGVIDSWGQGTLVTVSS
VL: EIVLTQSPATLSLSPGERATLSCRASQSVRSYLAWYQQKPGQAPRLLIYDASNRATGIPARFSGSGSGTDFTLTISSLEPEDFAVYYCQQRSNWPPTFGQGTKVEIKR
modifications: The antibody was labeled with Alexa647 in the cell-binding assay. The dye position is not stated.
notes: also called bivalent anti-TGFßRII mAb based on TBRII-A; copies: 2 + 2
